How the values were obtained:
[1] = target: human c-Met/Fc fusion protein (R&D Systems, Inc.) (human) (UniProt P08581); experiment: ELISA, plate-bound c-Met/Fc (2 ug/ml), anti-mouse IgG-HRP
[2] = target: mouse c-Met/Fc fusion protein (R&D Systems, Inc.) (mouse) (UniProt P16056); experiment: as above
Sequence of UniProt P16056 (P16056 25-931 limits assumed): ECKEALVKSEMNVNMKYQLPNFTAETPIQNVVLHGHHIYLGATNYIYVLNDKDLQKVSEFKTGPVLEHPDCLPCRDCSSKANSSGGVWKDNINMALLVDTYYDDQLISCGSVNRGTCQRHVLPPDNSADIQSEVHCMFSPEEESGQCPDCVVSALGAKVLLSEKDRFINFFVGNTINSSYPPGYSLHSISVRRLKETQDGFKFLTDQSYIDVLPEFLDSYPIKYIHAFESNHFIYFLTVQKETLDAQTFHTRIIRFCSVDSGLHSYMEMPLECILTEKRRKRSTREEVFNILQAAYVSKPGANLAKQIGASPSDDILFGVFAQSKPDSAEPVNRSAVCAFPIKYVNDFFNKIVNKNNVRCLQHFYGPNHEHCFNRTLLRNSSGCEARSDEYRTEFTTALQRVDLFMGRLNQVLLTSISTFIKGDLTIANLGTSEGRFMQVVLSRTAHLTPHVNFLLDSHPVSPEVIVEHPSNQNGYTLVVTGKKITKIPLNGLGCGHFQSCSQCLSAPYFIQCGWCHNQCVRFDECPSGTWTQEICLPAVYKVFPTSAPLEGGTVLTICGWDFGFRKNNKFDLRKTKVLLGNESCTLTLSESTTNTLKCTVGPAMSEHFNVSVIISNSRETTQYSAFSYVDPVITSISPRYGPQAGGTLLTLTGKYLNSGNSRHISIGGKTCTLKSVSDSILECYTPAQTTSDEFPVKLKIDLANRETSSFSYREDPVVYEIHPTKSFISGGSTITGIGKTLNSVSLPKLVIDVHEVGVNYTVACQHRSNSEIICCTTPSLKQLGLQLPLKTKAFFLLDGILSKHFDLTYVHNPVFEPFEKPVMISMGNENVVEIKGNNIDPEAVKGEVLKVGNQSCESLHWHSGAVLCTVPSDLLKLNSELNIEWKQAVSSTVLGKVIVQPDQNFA

Sequence of UniProt P08581 (P08581 25-932 limits assumed): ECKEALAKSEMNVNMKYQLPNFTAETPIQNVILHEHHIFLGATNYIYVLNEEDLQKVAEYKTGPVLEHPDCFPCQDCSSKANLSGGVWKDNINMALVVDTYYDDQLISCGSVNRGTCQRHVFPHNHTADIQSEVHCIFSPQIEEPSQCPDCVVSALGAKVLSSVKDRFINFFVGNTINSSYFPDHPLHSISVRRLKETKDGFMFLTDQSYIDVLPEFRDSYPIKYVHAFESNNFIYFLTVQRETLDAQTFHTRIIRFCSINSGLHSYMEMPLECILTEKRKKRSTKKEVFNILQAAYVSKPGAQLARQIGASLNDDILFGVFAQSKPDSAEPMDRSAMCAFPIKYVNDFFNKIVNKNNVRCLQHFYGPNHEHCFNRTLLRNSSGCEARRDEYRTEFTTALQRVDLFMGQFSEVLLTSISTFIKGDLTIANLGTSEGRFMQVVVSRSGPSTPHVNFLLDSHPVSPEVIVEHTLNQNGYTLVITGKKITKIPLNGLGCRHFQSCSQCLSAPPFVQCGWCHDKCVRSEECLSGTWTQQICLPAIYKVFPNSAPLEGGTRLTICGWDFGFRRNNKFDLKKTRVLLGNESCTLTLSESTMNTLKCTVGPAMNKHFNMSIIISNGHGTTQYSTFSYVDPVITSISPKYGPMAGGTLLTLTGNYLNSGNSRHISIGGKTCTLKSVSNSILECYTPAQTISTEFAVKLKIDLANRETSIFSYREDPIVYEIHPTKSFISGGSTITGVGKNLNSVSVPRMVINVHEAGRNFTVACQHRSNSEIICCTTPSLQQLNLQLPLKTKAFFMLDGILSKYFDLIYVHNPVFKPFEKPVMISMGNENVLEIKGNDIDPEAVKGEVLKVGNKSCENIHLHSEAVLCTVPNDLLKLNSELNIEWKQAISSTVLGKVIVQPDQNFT

monoclonal antibody against human c-Met, 5D5 (Genetech)
absorption at 450 nm [1]: 0.373 | absorption at 450 nm [2]: 0.113

— US20110129481A1
